Data taken from patent publication US20110136223A1 (Genentech, published 2011).

How the values were obtained:
[1] = biological target: T1, recombinant soluble rat GDNFRα (rat, UniProt Q62997 25-430, limits assumed); experiment: displacement of 125I-rGDNF from soluble GDNFRα by unlabeled NTN (10 nM)
T1 construct: also called rGDNFRα; GFR-alpha-1
T1 sequence: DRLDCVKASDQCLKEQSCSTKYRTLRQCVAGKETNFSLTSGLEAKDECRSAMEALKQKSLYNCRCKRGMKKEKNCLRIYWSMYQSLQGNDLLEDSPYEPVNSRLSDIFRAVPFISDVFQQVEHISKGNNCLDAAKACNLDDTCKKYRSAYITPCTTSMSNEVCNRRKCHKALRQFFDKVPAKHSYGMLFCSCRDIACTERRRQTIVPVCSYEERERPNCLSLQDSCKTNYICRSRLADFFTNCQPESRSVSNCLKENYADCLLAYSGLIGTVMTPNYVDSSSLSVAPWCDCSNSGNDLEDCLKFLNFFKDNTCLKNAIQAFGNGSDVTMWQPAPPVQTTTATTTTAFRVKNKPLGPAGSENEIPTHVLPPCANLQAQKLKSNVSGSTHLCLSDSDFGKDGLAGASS

[2] = biological target: T2, rat NTNRα, endogenous on embryonic (E14) rat spinal motoneurons (rat); experiment: cell-based or functional assay
T2 sequence (chain, GPI-linked): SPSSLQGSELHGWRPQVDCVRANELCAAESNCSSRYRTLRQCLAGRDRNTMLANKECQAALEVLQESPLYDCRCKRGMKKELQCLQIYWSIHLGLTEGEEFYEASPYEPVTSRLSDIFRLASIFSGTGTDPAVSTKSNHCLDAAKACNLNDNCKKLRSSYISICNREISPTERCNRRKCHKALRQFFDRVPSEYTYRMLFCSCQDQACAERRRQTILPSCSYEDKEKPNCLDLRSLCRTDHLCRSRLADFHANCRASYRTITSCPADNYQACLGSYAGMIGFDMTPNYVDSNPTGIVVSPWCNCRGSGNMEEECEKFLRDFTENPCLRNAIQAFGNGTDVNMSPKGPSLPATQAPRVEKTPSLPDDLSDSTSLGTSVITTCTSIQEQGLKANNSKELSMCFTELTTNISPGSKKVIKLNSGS

[3] = biological target: T1, recombinant soluble rat GDNFRα; experiment: binding of biotinylated NTN
[4] = biological target: T1, recombinant soluble rat GDNFRα; experiment: competition binding of 125I-rGDNF to soluble rGDNFRα, Scatchard analysis

B1: Neurturin (NTN), species not stated at the place of use (ligand, UniProt Q99748 96-197, looked up, species assumed)
Neurturin: ARLGARPCGLRELEVRVSELGLGYASDETVLFRYCAGACEAAARVYDLGLRRLRQRRRLRRERVRAQPCCRPTAYEDEVSFLDAHSRYHTVHELSARECACV
B1 was tested, and the Kd [1] was > 0.001 µM, the reduction of the motoneuron survival response to NTN after PIPLC treatment (FIG. 7C) [2] was 50 to 90% and the survival of E14 rat spinal motoneurons, counted 72 hours after addition of factor [2] was 50%.

B2: mouse Neurturin (ligand, UniProt P97463 96-195, looked up)
chain: PGARPCGLRELEVRVSELGLGYTSDETVLFRYCAGACEAAIRIYDLGLRRLRQRRRVRRERARAHPCCRPTAYEDEVSFLDVHSRYHTLQELSARECACV
modifications: 125I-labelled when used as tracer
notes: also called mouse NTN; mNTN
In the case of B2, the Kd [3] is reported as > 1000 µM.

B3: rat glial cell line-derived neurotrophic factor (ligand, UniProt Q07731 78-211, looked up)
chain: SPDKQAAALPRRERNRQAAAASPENSRGKGRRGQRGKNRGCVLTAIHLNVTDLGLGYETKEELIFRYCSGSCEAAETMYDKILKNLSRSRRLTSDKVGQACCRPVAFDDDLSFLDDSLVYHILRKHSAKRCGCI
modifications: 125I-labelled when used as tracer (iodinated either on tyrosine by the Bolton Hunter method or on lysine using lactoperoxidase)
notes: also called rGDNF; rat GDNF
Binder B3 has a Kd [4] of 3 pM.
